The nature of the series: yeast display, Sf9 membrane polyspecificity reagent, FACS + sequencing; frameworks hold sequencing errors. The method, boiled down: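 Synthetic nanobody libraries on Saccharomyces cerevisiae BJ5465 were galactose-induced for 36–48 hours, stained 1 hour at 4 °C with 10% biotinylated, detergent-solubilized Sf9 membrane reagent and enriched on streptavidin microbeads. FACS then separated cells into low and high (top ~1%) gates by anti-HA (expression) and streptavidin (reagent binding) fluorescence. Genes were colony-PCR amplified, MiSeq 2 × 250 sequenced and CDR-length filtered. A clone's polyreactivity label is that of its gate of origin.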
As for “QVQLVESGGGLVQAGGSLRLRCAASGLIFAEYAIGWYRQAPGKERELVARITSGGSTDYADSVKGRFTISRDNAKNTVYLQMNSLKPEDTAVYYCAARYYSQDKNASTASDFDYWGQGTQVTVSS”, the “polyreactivity (PSR sort gate)” value was “low polyreactivity”.

Take “QVQLVESGGGLVQAGGSLRLSCAASGSPFGFNAMGWYRQAPGKERELVAAISRSGTRTYYADSVKGRFTISRDNEKNTVYLQMNSQKPEDTAVYFCAADSTLSRYDYWGQGTQVTVSS”: the “polyreactivity (PSR sort gate)” value was “high polyreactivity”.

In the case of “QVQLVESGGGLVQAGGSLRLSCAASGSIFYTNAMGWYRQAPGKERELVAAIRWSGGRTYYADSVKGRFTISRDNAKNSVYLQMNSLKPEDTAVYYCNKVPRTPIPYKYGYWGQGTQVTVSS”, the “polyreactivity (PSR sort gate)” value was “high polyreactivity”.

Regarding “QVQLVESGGGLVQAGGSLRLSCAASGIIFRYYAMGWYRQAPGKERELVATISWRGGSTYYADSVKGRFTISRDNAKNTVYLQMNSLKPEDTAVYYCAAAISYSARGGKGLGGYWGQGTQVTVSS”, the “polyreactivity (PSR sort gate)” value was “high polyreactivity”.

“QVQLVESVGGLVPAGGSLRLSCAASGFTYPAYTMGWYRQAPGKERELVAAITSSGGNTYYADSVKGRFTISRDNAKNTVYLQMNSLKPEDTAVYYCYADASSSPYTDRQYIGADDSWGQGTQVTVSS”: the “polyreactivity (PSR sort gate)” value was “low polyreactivity”.

For “QVQLVESGGGLVQAGGSLRLSCAASGRIFAYYTMGWYRQAPGKERELVATISGSGASTYYADSVKGRFTISRDNAKNTDYLQMNSLKPEDTAVYYCAATRFYATIYDYWGQGTQVTVSS”, the “polyreactivity (PSR sort gate)” value is on record as “high polyreactivity”.

With “QVQLVESGGGLVQAGGSLRLICAASGSTFRYYAMGWYRQAPGKEREFVAAITKGGSRTSYADSVKGRFTISRDNAKNTVYLQMNSLKPEDTAVYYCATAYYGGASQRNYGYWGQGTQVTVSS”, the “polyreactivity (PSR sort gate)” value is given as “high polyreactivity”.

With “QVQLVESGGGLVQAGGSLRLSCAASGLMVTYYAMCGYRPAPGKARELVAAINYSGGSTYDADSVKGRFTISRDNAKTTVYLLMNSLKPEDTAVYYCAARRFTQTEGPMGYWGQGTQVTFSS”, the “polyreactivity (PSR sort gate)” value is on record as “low polyreactivity”.

In the case of “QVQLVESGGGLVQAGGSLRLSCAASGSTFSSYAMGWYRQAPGKERELVAAINWSGGRTYYADSVKGRFTISRDNAKNTVYLQMNSLKPEDTAVYYCAAVGVYTYPYDYWGQGTQVTVSS”, the “polyreactivity (PSR sort gate)” value is given as “high polyreactivity”.

With “QVQLVESGGGLVQAGGSLRLSCAASGFTFYPYAMGWYRQAPGKERELVAASTASGGSTYYADSVKGRFTISRDNAKNTVYLQMNSLKPEDTAVFYCAKGWVSYWRYKNEYWGQGTQVTVSS”, the “polyreactivity (PSR sort gate)” value is listed as “high polyreactivity”.

Consider “QVQLVESGGGLVQAGGRLRLSCAASGSTLGRYAMGWYRQAPGKERELVASITWSDDSTYYADYVKGRFTISRDNAKNTVYLQMNSLKPEDTAVYYCAAAGNLYTYRFYYWGQGTQVTVSS”, for which the “polyreactivity (PSR sort gate)” value was “low polyreactivity”.

“QVQLVESGGGLVQAGGSLRLRCAASGSTFLYYSMGWYREAPGKECELVAAISSTDDSTYADSVKGRFTISRDNAKNTVYLQLNSLKPEDTAVYYCAADVQTLITLGQFDYWGQGTQVTVSS”: the “polyreactivity (PSR sort gate)” value is “low polyreactivity”.

For “QVQLVESGGGLVQAGGSLRLSCAASGRTLPPNDMGWYRQAPGKERELVAAITRSGGRTYYADSVKGRFTISRDNAKNTVYLQMNSLKPEDTAVYYCATYNPPYSDYSRYNYWGQGTQVTVSS”, the “polyreactivity (PSR sort gate)” value was “high polyreactivity”.

On to “QVQLVESGGGLVQAGGSHRLSCAASGRTFRQYAMGWYRQAPGKERELVATISSGGSTYYADSVKGRFTISRDNAKNTVYLQMNSLKPEDTAVYYCAAPYWARKYWRKFGPFDYWGQGTQVTVSS”, for which the “polyreactivity (PSR sort gate)” value is reported as “low polyreactivity”.

For the sequence “QVHLVESGGGLVQAGGSLRLSCAASGSTFRFYAMGWYRQAPGKERELVATISRTGSTNYADSVKGRFTISRDNAKNTVYLQMNSLKPEDTAVYYCAAQRRRYPGYVQDDYWGQGTQVTVSS”, the “polyreactivity (PSR sort gate)” value is on record as “high polyreactivity”.

Consider “QVQLVESGGGLVQAGGSLRLICAASGSTFWGYTMGWYRQAPGKERELVAAITRSSGRTYYADSVKGRFTISRDNAMNTVYLQFHSLKPEDTAVYYWNADAVGRRTWSPYDYWGQGSQVTVSS”, for which the “polyreactivity (PSR sort gate)” value was “high polyreactivity”.

Regarding “QVQLVDSGGGLVQAGGSLRLSCAASGFTSTRYSMGWYREAPGKERELVAAISYGGGDTYYADSVKGRFTISRDNPKNTVYLQMNSLKPEDTAVYYCNARGRDRKSERRAFDYWGQGTQVTVSS”, the “polyreactivity (PSR sort gate)” value was “high polyreactivity”.

In the case of “QVQLVESGGGLVQAGGSLRISCAASGITLYGNVMGWYRQAPGKERELVAAISGGSTFYADSVKGRFTISRDNAKNTVYLQMNSLKPEDTAVYYCAAEWYGYGSNVPYYYWGQGTQVTVSS”, the “polyreactivity (PSR sort gate)” value is recorded as “low polyreactivity”.

With “QVQLVESGGGLVQAGGSLRLSCAASGRTCSNYAMGWYRQAPGKERELVAAISYSVGSTYYADSVKGRFTIARDNAKNTVYLQMNSLKPEDTAVYYCNAKSRPHYAWYRYDYWGQGTQVTVSS”, the “polyreactivity (PSR sort gate)” value is listed as “high polyreactivity”.

As for “QVQHVESVGGLVQAGGSLRLSCAASASIIYANTMGWYRQAPGKEREFVATITDSGAIKYYADSVKGRFTISRDNAKNTVYLQMNSLKPEDTAVYYCNADSIYSARGWLYGYWGQGTQVTVSS”, the “polyreactivity (PSR sort gate)” value is “low polyreactivity”.

Take “QVQLVESGGGLVQAGGSLRLSCAASGITFTGFAMGWYRQAPGKERELVAAITWSSGSTYYADSVKGRFTISRDNAKNTVYLQMNSLKPEDTAVYYCNAGYWYDGPDYIPEYDYWGQGTQVTVSS”: the “polyreactivity (PSR sort gate)” value is listed as “low polyreactivity”.

As to “QVQLVESGGGLVQAGGSLRLSCAASGGTLSYYAMGWYRQAPGKERELVAGISRRGGSTYYADSVKGRFTISRDNAKNTVYLQMNSLNPEDTAVYYCAADSNRHYYYWGQGTQVTVSS”, the “polyreactivity (PSR sort gate)” value is given as “high polyreactivity”.

“QVQLVESGGGLVQAGGSLRLSCAASGRTFQDNAMGWYRQAPGKEREFVAAISWSGDSTYYADSVKGRFTISRDNAKNTVYLQMNSLKPEDTAVYYCAASRVIPSYPYYKYDYWGQGTQVTVSS”: the “polyreactivity (PSR sort gate)” value is listed as “low polyreactivity”.

In the case of “QVQLVESGGGLVQAGGSLRISCAASGFTFSQYAMGRYRQAPGKERELVAAISVSGGTTYYADSVKGRFTISRDNAKNTVYLQMNSLKPEDTAVYYCDARTPFSSSPYVNTSGYYYWGQGSQVTVSS”, the “polyreactivity (PSR sort gate)” value is “high polyreactivity”.

For “QVQLQESGGGLVQAGGSLRLSCAASGYISTFSSEMGWYRQAPGKERELVASIAPGCTTSYADSVKGRFTISRDNAKNTVYLQMNSLKPEDTAVYYCAVDYTVPASFGYWGQGTQVTVSS”, the “polyreactivity (PSR sort gate)” value was “high polyreactivity”.

Regarding “QVQLVESGGGLVQAGGSLRLSCAASGAIFDSNAMGWYREAPGTERELVASIDRGGDTNYADSVKGRFTISRDNAKNTVYLQMNSLKPEDTAVYYCAAYYYKWVWIGMDYWGQGTQVTVSS”, the “polyreactivity (PSR sort gate)” value was “low polyreactivity”.

For “QVQLVESGGGLVQAGGSLRLSCAASGITISGYAMGWYRQAPGKERELVAAISRRGGSTYYADSVKGRFTISRDNAKNTVYLQMNSLKPEDTAVYYCARYPSRNYNYWGQGTQVTVSS”, the “polyreactivity (PSR sort gate)” value is reported as “high polyreactivity”.

For the sequence “QVQLVESGGGLVQAGGSLRLSCAASGSIFYYNAMGWNRQAPGKERELVAASTTRGGSTYYADSVKGRFTISRDNAKNTVYLQMYSLKPVDTEVYYCARSSRGKLDYWGQGTQVTVSS”, the “polyreactivity (PSR sort gate)” value is given as “low polyreactivity”.

Turning to “QVQLVESGGGLVQAGGSLRLSCAASGSIFVHNAMGWYRHAPGKERELVAAITWSGGSTYYADSVKGRFTISRDNAKNTVYLQMNSLKPEDTAVYYCAAEDVAAQWAYESPTSYWYYYWGQGTQVTVSS”, the “polyreactivity (PSR sort gate)” value was “low polyreactivity”.

Turning to “QVQLVESGGGLVQAGGSLRLICAASGFIFLVNAMGWYRQAPGKERELVAAISLSTTSTYYADSVKGRFTISRDNAKNTVYLQMNSLKPEDTAVYYCAADHWGVGAPTYGQYTTHDYWGQGTQVTVSS”, the “polyreactivity (PSR sort gate)” value is “low polyreactivity”.

As to “QVQLVESGGGLVQAGGSLRLSCDASGFTFPSYAMGWYRQAPGKERELVAAISYRGGRTYYADSVKGRFTISRDNAKNTVYLQMNSLKPEDTAVYYCAAAGYAWWGEYEYWGQGTQVTVSS”, the “polyreactivity (PSR sort gate)” value is reported as “high polyreactivity”.

On to “QVQLEESGGRLVQAGGRLRLNCAASGLTFNTNSMGWYRKAPGKERELVAAISRGGGSTYYADSVKGRFTISRDNAKNSVYLQMNSLKPEDTAVYYCNAEKSASYLLYDYWGQGTLVTVSS”, for which the “polyreactivity (PSR sort gate)” value is “high polyreactivity”.

For “QVQLVESGGGLVQAGGSLRLSCAASGRMFTHNVMGWYRQAPGKERELVAAISASGGSTYYADSVKGRFTISRDNAKNTVYLQMNSLKPEDTAVYYCNAGDYRTFYRRFDYWGQGTQVTVSS”, the “polyreactivity (PSR sort gate)” value is on record as “low polyreactivity”.

With “QVQLVESGGGLVQAGGSLRLSCAASGSTFVRNAMGWYRQAPGKERELVAAITSSGGSTYYADSVKGRFTISRDNAKNTVYLQMNSLKPEDTAVYYCNAELGSDTANYDYWGQGTQVTVSS”, the “polyreactivity (PSR sort gate)” value is listed as “low polyreactivity”.

As to “QVQLVESGGGLLQAGGSLRLSCASSGRTFLVNAMGWYRQAPGKERELVAVITRVGSTNYADSVKGRFTISRDNAKNTVYLQMYSLKPEDTAVYYCAKQFSPYRSYGPVVRYDYWGQGTQLTVSS”, the “polyreactivity (PSR sort gate)” value is listed as “low polyreactivity”.

In the case of “QVQLVESGGGLVQAGGSLRLSCAASGSIYIVNVMGWYRQAPGKERELVAGITTNGGITYYADSVKGRFTISRDNAKNTVYLQMNSLKPEDTAVYYCATRSGSPSSIEMDYWGQGTQVTVSS”, the “polyreactivity (PSR sort gate)” value is reported as “low polyreactivity”.

As for “QVQLVESGGGLVQAGGSLRLSCAASGSIFFRYAMGWYRQAPGKERELVATIRSSGGRTHYADSVKGRFTISRDNAKNTVYLQMHSLKPEDTAVYYCHYGVYQYPQDYDYWGQGTQVTVSS”, the “polyreactivity (PSR sort gate)” value is “low polyreactivity”.

Regarding “QVQLVESGGGLVQAGGSLRLSCAASGFTFVNYAIGWYRQAPGKERELVAAIRRSGSRTYYADSVKGRFTISRDNAKNTVYLQMNSLKPEDTAVYYCAAVWYRLYGYWGQGTQVTVSS”, the “polyreactivity (PSR sort gate)” value is “low polyreactivity”.

With “QVQLVESGGGLVQAGGSLRLSCAASGSIFWRNAMGWYRQAPGKERELVAAISGNGGTTYYADSVKGRFTISRDNAKNTVYLQMNSLKPEDTAVYYCAKVGKTYRTYEYWGQGTQVTVSS”, the “polyreactivity (PSR sort gate)” value was “high polyreactivity”.

Take “QVQLQESGGGLVQAGGSLRQSYAASGYIFPSLAMGWYRQAPGKEREFVAAIGRGSTNNYEDSVKGRFTISRDNAKNTAYQQMNRLKPEDTAVYYCAAAASPLTRDLYWGQGTQVTVSS”: the “polyreactivity (PSR sort gate)” value was “low polyreactivity”.
